Data published in patent US7199217B2, “Amidated glucagon-like peptide-1” (Eli Lilly and Company, priority 2000, dated 2007).

Columns and labels:
[1] = Aggregation time in solution, turbidity at 350 nm while stirred; assay type: physicochemical; details: 37° C.; 0.3 mg/mL in 10 mM citrate, 10 mM phosphate, 150 mM NaCl, pH 7.4 to 7.5, stirred
Experimental: The peptides in solution were stirred at elevated temperature in a suitable buffer while recording turbidity at 350 nm as a function of time. Time to the onset of aggregation was measured to quantify the potential of each GLP-1 molecule to aggregate under these stressed conditions.
In general, the peptides in solution were stirred at elevated temperature in a suitable buffer while recording turbidity at 350 nm as a function of time. Time to the onset of aggregation was measured to quantify the potential of a given GLP molecule to aggregate under these stressed conditions.
The GLP-1 peptides were first dissolved under alkaline conditions (pH 10.5) for 30 minutes to dissolve any pre-aggregated material. The solution was then adjusted to pH 7.4 and filtered. Specifically, 4 mg of a lyophilized GLP-1 peptide was dissolved in 3 mL of 10 mM phosphate/10 mM citrate. The pH was adjusted to 10.0–10.5 and held for 30 minutes. The solution was adjusted with HCl to pH 7.4 and filtered through a suitable filter, for example a Millex® GV syringe filter (Millipore Corporation, Bedford, Mass.). This solution was then diluted to a final sample containing 0.3 mg/mL protein in 10 mM citrate, 10 mM phosphate, 150 mM NaCl, and adjusted to pH 7.4 to 7.5. […] Every five minutes the turbidity of the solution was measured at 350 nm on an AVIV Model 14DS UV-VIS spectrophotometer (Lakewood, N.J.). […]

[2] = molecular target: T1, human GLP-1 receptor (Homo sapiens, UniProt P43220); assay: In vitro activity, HEK-293 Aurora CRE-BLAM cells, β-lactamase reporter; assay type: cell-based; details: comparison with the acid form; test not specified
T1 construct: expressed in transfected cells; host or cells: HEK-293 Aurora CRE-BLAM cells
From the text: The day after seeding, the medium is replaced with plasma free medium.

T1 sequence (P43220 24-463): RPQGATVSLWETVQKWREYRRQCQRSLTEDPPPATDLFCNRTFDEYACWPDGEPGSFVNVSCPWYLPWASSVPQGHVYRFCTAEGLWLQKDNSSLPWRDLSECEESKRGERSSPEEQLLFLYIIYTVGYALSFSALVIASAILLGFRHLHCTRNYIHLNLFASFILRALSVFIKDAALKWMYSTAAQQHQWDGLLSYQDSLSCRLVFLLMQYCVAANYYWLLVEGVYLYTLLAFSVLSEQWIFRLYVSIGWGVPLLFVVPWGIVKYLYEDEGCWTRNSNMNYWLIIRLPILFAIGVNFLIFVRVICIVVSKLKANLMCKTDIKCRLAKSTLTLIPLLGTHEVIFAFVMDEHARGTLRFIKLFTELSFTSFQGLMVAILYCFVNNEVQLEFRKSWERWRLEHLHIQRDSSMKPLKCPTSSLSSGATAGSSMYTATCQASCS

Substance	Time to onset of aggregation [1]	Potency compared to the acid form Val^8-GLP-1(7–37)OH (in words) [2]
Val^8-GLP-1(7–37)NH2 (HXEGTFTSDVSSYLEXQAAKXFIXWLVKGRX; C-terminal amide) [GLP-1(7–37)OH wherein Ala at position 8 has been substituted with Val and Gly at position 37 has been amidated]	approximately 23 hours	–
Val^8-GLP-1(7–36)NH2	–	slightly less potent than the acid form
